Assay results reported in publication PMC3119050, “High-Resolution X-Ray Structure of the Trimeric Scar/WAVE-Complex Precursor Brk1” (PLoS ONE, 2011).
Changes are numbered by the printed parent chain. Names may count otherwise.

Assays:
[1] = biological target: the molecule itself; test: AUC; sedimentation equilibrium, 43 µM and 171 µM DdBrk1, PBS, 10°C, 18,000 and 26,000 rpm, absorbance at 280 nm, global fit with a single species
[2] = biological target: T1, Scar(1-225)/AbiA(1-149)/DdBrk1-complex (Dictyostelium discoideum, UniProt Q54NF8 1-225; Q55FT9 1-149; Q54X65 1-68); test: SEC; 100 nM DdBrk1_488 incubated with the unlabelled complex (1.4 µM MBP-DdBrk1) for two hours on ice; Superdex-S200 10/300, PBS, 4°C, absorbance at 488 nm and 280 nm; details: both partners purified
T1 construct: AbiA (Abi) of Dictyostelium discoideum, residues 1-149, untagged; remnant after PreScission cleavage; Brk1 of Dictyostelium discoideum, 68 residues; In the exchange experiment the unlabelled DdBrk1 chain of this complex is replaced by DdBrk1_488; also called Scar/AbiA/DdBrk1 subcomplex; source: E. coli BL21 DE3, coexpressed, purified (glutathione sepharose, PreScission cleavage, Superdex-S75); …
T1 sequence 1: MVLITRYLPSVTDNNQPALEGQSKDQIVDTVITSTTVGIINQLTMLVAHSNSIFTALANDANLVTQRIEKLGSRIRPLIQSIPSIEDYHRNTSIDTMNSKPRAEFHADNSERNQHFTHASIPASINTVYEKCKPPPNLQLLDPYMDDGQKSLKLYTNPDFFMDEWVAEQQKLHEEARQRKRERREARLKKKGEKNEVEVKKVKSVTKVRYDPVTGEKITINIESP
T1 sequence 2: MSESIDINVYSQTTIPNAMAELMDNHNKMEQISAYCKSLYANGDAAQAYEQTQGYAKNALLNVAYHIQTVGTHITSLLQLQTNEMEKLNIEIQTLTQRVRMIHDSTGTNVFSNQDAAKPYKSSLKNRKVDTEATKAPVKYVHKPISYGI
T1 sequence 3: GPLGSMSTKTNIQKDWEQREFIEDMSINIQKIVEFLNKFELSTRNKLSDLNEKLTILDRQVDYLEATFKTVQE

[3] = biological target: the molecule itself; test: AUC; sedimentation velocity with fluorescence detection, 8 to 800 nM DdBrk1_488, PBS, 20°C, 50,000 rpm; trimer to monomers

B1: Dictyostelium discoideum Brk1 (DdBrk1), GST tag removed (natural protein)
chain: T1 sequence 3
notes: extra amino acids left at the N-terminus after PreScission cleavage of the GST tag; Brk1 (HSPC300 ortholog) of Dictyostelium discoideum, 68 residues; Calculated molar mass 8.61 kg/mol per chain; homotrimer by sedimentation equilibrium; also called DdHSPC300; HSPC300; source: E. coli BL21 DE3, purified (glutathione sepharose, PreScission cleavage, Mono Q, Superdex-S75); not shown: GST, N-terminal, …
Question: Which “stoichiometry N” value [1] does the source give for B1 here?
Answer: 3

B2: DdBrk1_488 (DdBrk1 mutant M1C labelled with Alexa 488) (natural protein, Dictyostelium discoideum)
chain: T1 sequence 3 with M6C
modifications: Alexa 488 (Alexa-488 Fluor C5 maleimide) on the cysteine that replaces methionine 1
notes: extra amino acids left at the N-terminus after PreScission cleavage of the GST tag; Brk1 of Dictyostelium discoideum, 68 residues, first methionine replaced by cysteine; Trimer at the highest concentrations examined; dissociates in the lower nanomolar range; also called DdBrk1 M1C; DdBrk1_M1C; not shown: GST, N-terminal, cleaved
Question: Which results are given for B2?
Answer: binding result [2]: binds; stoichiometry N [3]: 3
